Assay results published in the supplement of paper PMC7125110.
± gives the standard error. This sample holds only a part of the variants without activity.

B1: glmS ribozyme (parent)
chain: AUAAAAGCGCCAGAACUACAGAAAUGUAGUUGACGAGGAGGAGGUUUAUCGAAUUUUCGGCGGAUGCCUCCAAA

Tests used:
Details in all cases: with glucosamine-6-phosphate
glucosamine-6-phosphate [1] = variants of: B1; assay: self-cleavage kobs at 40 uM GlcN6P; higher = faster cleavage; RNA array
In short: (§1)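 Barcoded ribozyme variants, transcribed in situ by E. coli RNA polymerase on sequenced MiSeq chips, were followed via a hybridised Cy3 probe at 37 °C. Glucosamine-6-phosphate ranged from 40 μM to 10 mM in HEPES/KCl/Mg(OAc)2 buffer. kobs came from decay fits to per-tile medians, and kcat and KM from weighted Michaelis–Menten fits.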

glucosamine-6-phosphate [2] = variants of: B1; assay: self-cleavage kobs at 160 uM GlcN6P; higher = faster cleavage; RNA array
In short: as §1

glucosamine-6-phosphate [3] = variants of: B1; assay: self-cleavage kobs at 640 uM GlcN6P; higher = faster cleavage; RNA array
In short: as §1

glucosamine-6-phosphate [4] = variants of: B1; assay: self-cleavage kobs at 2500 uM GlcN6P; higher = faster cleavage; RNA array
In short: as §1

glucosamine-6-phosphate [5] = variants of: B1; assay: self-cleavage kobs at 10000 uM GlcN6P; higher = faster cleavage; RNA array
In short: as §1

Variant	self-cleavage kobs at 40 uM GlcN6P (glucosamine-6-phosphate [1])	self-cleavage kobs at 160 uM GlcN6P (glucosamine-6-phosphate [2])	self-cleavage kobs at 640 uM GlcN6P (glucosamine-6-phosphate [3])	self-cleavage kobs at 2500 uM GlcN6P (glucosamine-6-phosphate [4])	self-cleavage kobs at 10000 uM GlcN6P (glucosamine-6-phosphate [5])
G7U C8G A12U U49G	< 1e-05 s⁻¹	< 1e-05 s⁻¹	< 1e-05 s⁻¹	< 1e-05 s⁻¹	< 1e-05 s⁻¹
A6U C50G	4.82e-05 ± 1.8e-05 s⁻¹	6.77e-05 ± 2.7e-05 s⁻¹		0.000434 ± 0.00021 s⁻¹	2.57e-05 ± 1.3e-05 s⁻¹
G7U C16G	< 1e-05 s⁻¹		< 1e-05 s⁻¹		< 1e-05 s⁻¹
C8A G40U C61U U69G	< 1e-05 s⁻¹				< 1e-05 s⁻¹
G7C C67U	< 1e-05 s⁻¹	< 1e-05 s⁻¹	< 1e-05 s⁻¹	< 1e-05 s⁻¹	< 1e-05 s⁻¹
C8A C50U C67G	< 1e-05 s⁻¹				
G7U C8A	< 1e-05 s⁻¹	< 1e-05 s⁻¹		< 1e-05 s⁻¹	
C8G G13U G51C A64G	< 1e-05 s⁻¹				
A6U G43A	< 1e-05 s⁻¹	< 1e-05 s⁻¹			< 1e-05 s⁻¹
G7C U49G	< 1e-05 s⁻¹	< 1e-05 s⁻¹			
C8A U45G U69C C71G	< 1e-05 s⁻¹				
A6U C8G A36G U45A A64U	< 1e-05 s⁻¹		< 1e-05 s⁻¹		
A6U G7U C16G C34A	< 1e-05 s⁻¹				< 1e-05 s⁻¹
G7U C10G C68G	0.000171 ± 5.8e-05 s⁻¹				5.21e-05 ± 1.6e-05 s⁻¹
C8A G43A	< 1e-05 s⁻¹	< 1e-05 s⁻¹	< 1e-05 s⁻¹	< 1e-05 s⁻¹	
G7U A42U	< 1e-05 s⁻¹		< 1e-05 s⁻¹	< 1e-05 s⁻¹	< 1e-05 s⁻¹
C8A G40U	< 1e-05 s⁻¹	< 1e-05 s⁻¹	< 1e-05 s⁻¹	< 1e-05 s⁻¹	< 1e-05 s⁻¹
G7C G35U U54G	< 1e-05 s⁻¹			< 1e-05 s⁻¹	< 1e-05 s⁻¹
C8A U55G A64C U69G	0.000295 ± 0.00013 s⁻¹				5.15e-05 ± 2.4e-05 s⁻¹
C8G A12C A15G U30G G38A U46C	< 1e-05 s⁻¹				< 1e-05 s⁻¹
C8A G29U G60U	< 1e-05 s⁻¹				< 1e-05 s⁻¹
G7U A42G U49G C70G	< 1e-05 s⁻¹				
G7A A48U U56G	< 1e-05 s⁻¹	< 1e-05 s⁻¹	< 1e-05 s⁻¹		< 1e-05 s⁻¹

Variant	self-cleavage kobs at 40 uM GlcN6P (glucosamine-6-phosphate [1])	self-cleavage kobs at 160 uM GlcN6P (glucosamine-6-phosphate [2])	self-cleavage kobs at 640 uM GlcN6P (glucosamine-6-phosphate [3])	self-cleavage kobs at 2500 uM GlcN6P (glucosamine-6-phosphate [4])	self-cleavage kobs at 10000 uM GlcN6P (glucosamine-6-phosphate [5])
G7C G13U A33G U45G	< 1e-05 s⁻¹				
C8G C11G	< 1e-05 s⁻¹	< 1e-05 s⁻¹			< 1e-05 s⁻¹
G7A C11U U30A	< 1e-05 s⁻¹				
G7A A15U C58A	< 1e-05 s⁻¹		< 1e-05 s⁻¹	< 1e-05 s⁻¹	< 1e-05 s⁻¹
A6U C10G A42G C50G C67A C70A	0.000143 ± 4.1e-05 s⁻¹				9.95e-05 ± 2.4e-05 s⁻¹
C8G C16U	< 1e-05 s⁻¹	< 1e-05 s⁻¹	< 1e-05 s⁻¹	< 1e-05 s⁻¹	< 1e-05 s⁻¹
G7C G38U C70G	< 1e-05 s⁻¹				
A6U A36G A64U	< 1e-05 s⁻¹	< 1e-05 s⁻¹	< 1e-05 s⁻¹	< 1e-05 s⁻¹	< 1e-05 s⁻¹
C8G C61G	< 1e-05 s⁻¹	< 1e-05 s⁻¹	< 1e-05 s⁻¹	< 1e-05 s⁻¹	< 1e-05 s⁻¹
A6U G62A	< 1e-05 s⁻¹	< 1e-05 s⁻¹			
G7U G9C C11G A12C U55A	< 1e-05 s⁻¹				< 1e-05 s⁻¹
A6U G63U	< 1e-05 s⁻¹	< 1e-05 s⁻¹	< 1e-05 s⁻¹	< 1e-05 s⁻¹	
C8G A36U G37U A52U U54A	< 1e-05 s⁻¹				< 1e-05 s⁻¹
G7C G40C U54G G62A	< 1e-05 s⁻¹				
G7U G44C	< 1e-05 s⁻¹	< 1e-05 s⁻¹	< 1e-05 s⁻¹	< 1e-05 s⁻¹	< 1e-05 s⁻¹
G7U A14U A48G U56C A64U G66U	< 1e-05 s⁻¹				< 1e-05 s⁻¹
A6U C16A C34A G38C	< 1e-05 s⁻¹		< 1e-05 s⁻¹		< 1e-05 s⁻¹
G7C A15U G59C	< 1e-05 s⁻¹	< 1e-05 s⁻¹	< 1e-05 s⁻¹	< 1e-05 s⁻¹	< 1e-05 s⁻¹
G7A G29C U57G C70G	0.000158 ± 7.6e-05 s⁻¹				0.000678 ± 0.00017 s⁻¹
G7A A39C G51U	< 1e-05 s⁻¹	< 1e-05 s⁻¹		< 1e-05 s⁻¹	
G7A A39G C58G	< 1e-05 s⁻¹				
G7U C10A A12U A36G C50G	0.000144 ± 2.8e-05 s⁻¹		0.0003 ± 0.0001 s⁻¹		0.000157 ± 3.1e-05 s⁻¹
G7C G40C	< 1e-05 s⁻¹			< 1e-05 s⁻¹	< 1e-05 s⁻¹
